A protein production outcome set (Wang et al. 2014)

Assay: label from the status in PepcDB records

Sequence	protein production
MGNQFSINRNRPANAGEAHASSTEAKPAPDAASPSRQVRVATAPSILEGLRKLRLPFNFGARVPPLPEETWAEIARRVDTKTLHRMRAVSKTLKAAADTEIRQLTVNTVEALQAAKRYACLETLKMDGYFGDADLEGLPASLRELDLFSTRYVSAKGLAHLSKLPLVRLKVRANGIHAEAARALAASTTLTALDIRGNGIGDAGAQALAANTSITSLDASFNDIGVAGARALAANTTLTSLDLGFNAIGDEGLQALATNTSLTSLTVGSCEIGDAGAAALANNTALTSVDLTCNHIGEEGAEGLAANTVLTSLDLTRNSISDRGAAALAGNTTLTSLCVNFNDIYGRGARWLAENTTLTTLDISYNPIGDWGALGLADNMTLRSLSVVAGRIGVEGARALAGNTTLTTLDISVNAIGNEGAQALAANATLTTLSLRSCELRAAAAEAFKANTTLASLDIGENRIEAAGAQALADNTALTTLRVTGNQIGMAGAQALAANRSLTKLNISQNDIRSAGAQALAANTSLTSLDVSSASIGAAGAQALAANTSITWLNINDNHIGDAGAQALAAHPALTSLYACDNFIGTAGVQALAANTRLTSLSIWGNRIGDAGVKALAANTTLTKLTIGKRVDKQLGEQIGDLAWQELMASVDRSGMTFHSL	failed
MGNTDKLMNQIFDLKFTSKSLQRQSRKCEKEEKAEKLKVKKAIEKGNMDGARIYAENAIRKRSEQMNYLRLASRLDAVVARLDTQAKMTTITKSMTNIVKSLESSLATGNLQKMSETMDSFEKQFVNMEVQAEFMENAMAGSTSLSTPEGEVNSLMQQVADDYGLEVSVGLPQPAGHAIPTKTEEKVDEDDLSRRLAELKARG	failed
MGNYMTYIVGLTGGIGSGKTTIANLFTDLGVPLVDADVVAREVVAKDSPLLSKIVEHFGAQILTEQGELNRAALRERVFNHDEDKLWLNNLLHPAIRERMKQKLAEQTAPYTLFVVPLLIENKLTALCDRILVVDVSPQTQLARSAQRDNNNFEQIQRIMNSQVSQQERLKWADDVINNDAELAQNLPHLQQKVLELHQFYLQQAENKNA	not failed
MGPTLGPAPLRGKSIPMNRTGRALTLGCLLLLQPLLAHAQAGGNSLLIPALGRCTLDPQAQDQAEALTACQKAADEGDAEAQYELGEFYYEGKGAPQDFNQALSYFEKASLQGHAQAQFKLGTMFFHGEGVPANNVQAYIVLKMAAVNGAEDALDTADEVAEHMQRDELEVATQVLGQIFRKYLMELQSADGRSPFSPLP	failed
MGQAFAALSVWQVMGYGLVFFGGIYLLFGAATWLLTRRVLPALGVGRPLDPRPLGPGQWRREFLQSGLSVLIFGLGMVFPWGLVQLGWARLDDDAGPWRIVAEILVLVIWNDVHFWINHRLLHTRLLRRFHLPHHRSVVTTPFSTYSFHPIEALMLGNVILLPMVVHDFSFWSLLSVPLFSLFFNCVGHANYDFFPGVSYAHWFAASRRHHLHHACYQGNFGFQFTFMDRLFGTRLGADAAQGQLAAYRKRGAVGSAR	failed
MGQALGCIQVDQSNVAIKETFGKFDEVLEPGCHCLPWCLGSQVAGHLSLRVQQLDVRCETKTKDNVFVTVVASIQYRALAESAQDAFYKLSNTRNQIQAYVFDVIRASVPKLDLDSTFEQKNDIAKTVETELEKAMSHYGYEIVQTLIVDIEPDVHVKRAMNEINAASRMREAASEKAEAEKILQIKRAEGEAESKYLSGMGIARQRQAIVDGLRNSVLAFSESVPGTSSKDVMDMVLVTQYFDTLKEIGASSKSNSVFIPHGPGAVRDIASQIRDGLLQGNSAAE	failed
MGQIGVEITGVITDISEIKTFKRRDGSLGKYKRITIADKSGTIRMTLWDDLAELDVKVGDVIKIERARARKWRNNLELSSTSETKIKKLENYEGELPLEHHHHHH	not failed
MGQKIHAFMFPWFAFGHMTPYLHLGNKLAEKGHRVTFLLPKKAQKQLEHQNLFPHGIVFHPLVIPHVDGLPAGAETASDIPISLVKFLSIAMDLTRDQIEAAIGALRPDLILFDLAHWVPEMAKALKVKSMLYNVMSATSIAHDLVPGGELGVAPPGYPSSKALYREHDAHALLTFSGFYKRFYHRFTTGLMNCDFISIRTCEEIEGKFCDYIESQYKKKVLLTGPMLPEPDKSKPLEDQWSHWLSGFGQGSVVFCALGSQTILEKNQFQELCLGIELTGLPFLVAVKPPKGANTIHEALPEGFEERVKGRGIVWGEWVQQPSWQPLILAHPSVGCFVSHCGFGSMWESLMSDCQIVFIPVLNDQVLTTRVMTEELEVSVEVQREETGWFSKENLSGAIMSLMDQDSEIGNQVRRNHSKLKETLASPGLLTGYTDKFVDTLENLVNEQGYIS	failed
MGRAFEYRRAAKEKRWDKMSKVFPKLAKAITLAAKDGGSEPDTNAKLRTAILNAKAQNMPKDNIDAAIKRASSKEGNLSEITYEGKANFGVLIIMECMTDNPTRTIANLKSYFNKTQGASIVPNGSLEFMFNRKSVFECLKNEVENLKLSLEDLEFALIDYGLEELEEVEDKIIIRGDYNSFKLLNEGFESLKLPILKASLQRIATTPIELNDEQMELTEKLLDRIEDDDDVVALYTNIE	failed
MGRDYQSEALAEQHLREAHLLAPDHAAVLIGLYRFYFYKGRLGEALEVAQACLCKAARDNGLASDWRKVRRGDAEFSSYSAVLPRFYLFALKAYAYLQMRLGQLDEGHAAVEKLLELDPTDKVGAAVLLDVWRRIGLEHHHHHH	failed
MGREFIPLFEDWAATYDQTVQGLDIQYKEAFRGYDHILDAIVRKSGTHVLEFGPGTGNLTAKLLDAGKTVFGIEPSPAMRKLASDKLSGRTEIVDGDFLTFPEPPFQADTIVSSYAFHHLTDEEKRAAIKQYGKYLHLHDKIVFADTVFENAQAYQQAIDKARSQGFYQLANDLETEHYPTLDALKEMFTAEGFAVRFTQQNDFVWIMEAIKRLEHHHHHH	failed
MGRISSGGMMFKAITTVAALVIATSAMAQDDLTISSLAKGETTKAAFNQMVQGHKLPAWVMKGGTYTPAQTVTLGDETYQVMSACKPHDCGSQRIAVMWSEKSNQMTGLFSTIDEKTSQEKLTWLNVNDALSIDGKTVLFAALTGSLENHPDGFNFK	not failed
MGRKDSLDLEEEAASGASSALEAGGSSGLEDVLPLLQQADELHRGDEQGKREGFQLLLNNKLVYGSRQDFLWRLARAYSDMCELTEEVSEKKSYALDGKEEAEAALEKGDESADCHLWYAVLCGQLAEHESIQRRIQSGFSFKEHVDKAIALQPENPMAHFLLGRWCYQVSHLSWLEKKTATALLESPLSATVEDALQSFLKAEELQPGFSKAGRVYISKCYRELGKNSEARWWMKLALELPDVTK	failed
MGRKQLNHIKCRENCSLVAKAGFRHRRVIIQGIQSAMVQDSDEILFVEEEDPVAGSLPSDVSPWKVLVADDDPEVFTVTRLVLSGFVFAGRGVSLLYAGSAAEATEILRQQSDIAVALLDVVMETEDAGLKLVKVIRDDLGNSHLRIVLRTGQPGQAPEHDVVMRYDINDYRSKTELTDTKLITTLVSSLRSYQQIEALERSRAELREARDTLEIRVAERTRDLRESEARLRSILDASVFPILVLSEEGDRVRFLNDHAGEALGWALLENTTSTLPDLWENPVDGARLLARTVQRGRVLDCEFRLRGAGGEPFWALVSTIAMSYDGQPAVLLSFNDITVHKQREEAWQRLALTDPLTGLGNRRLLFDRGILEVARARRGCWPLSGLMIDLDHFKRINDTQGHAAGDAILRTLADTLRESLREIDVIARVGGEEFAILLPDTSLTAAHEVGERLRLSCQIPQPVGGPVTISVGISTLHPEDRGLGDMLSRADDALYRAKRNGRDRVEIADDSEDNQDVSP	failed
MGRKRGNAIMEKTKIDIISGFLGAGKTTLIKKLLKDAFQGEQVVLIENEFGEIGIDGGFLKEAGIQIREMNSGCICCSLVGDFGASLKEVISKYHPDRILIEPSGVGKLSDVIKAVQGVEEETGLVLNSYTTVVDAKKCKMYMRNFGEFFNNQVEYAGAIIMSRTDIVDEAKAQASLELLREINSKAAIITTPIEKLEGKKLLEVMEHPVSLADELMEEEEVCPECGHVHEHGEHHHHDHDEECGCGHDHDHEEHEHHHHDHDEECGCGHDHAHEEHEHHHHDHDHECGCGHDHHDHHHHHADEVFTSWGRETIKKYTKENLEKMLEALSASDEYGIILRAKGMLPAEDGTWIYFDMVPEETEIREGAPEYTGRLCVIGSKLNEDKLAELFGL	failed
MGRKSNRAKEKKQRRLEERAAMDAVCAKVDAANKLEDPLSAMPVFKKYDRNGLNLQIECKRVTALSPDTVEWAYELTRANMQTLYEQSEWGWKEREKREEMKDERAWYLLARDADSTPLAFSHFRFDVECGDEVLYCYEVQLESKVRRKGLGKFLIQILQLIANSTQMKKVMLTVFKHNHGAYQFFREALQFEIDETSPSMSGCCGEDCSYEILSRRTKYGEVSGHAHGGHCGGCCH	not failed
